Laboratory results taken from article PMC4654454 (ACS chemical biology, 2015).

How the values were obtained:
[1] = molecular target: T1, hORC1 BAH E127G (human, UniProt Q13415 45-171, E127G); assay: EMSA
T1 sequence: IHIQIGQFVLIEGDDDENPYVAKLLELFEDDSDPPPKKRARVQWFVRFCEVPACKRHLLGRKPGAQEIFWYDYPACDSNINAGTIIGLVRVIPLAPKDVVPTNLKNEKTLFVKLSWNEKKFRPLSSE

[2] = molecular target: T2, hORC1 BAH F89S (human, UniProt Q13415 45-171, F89S); assay: EMSA
T2 sequence: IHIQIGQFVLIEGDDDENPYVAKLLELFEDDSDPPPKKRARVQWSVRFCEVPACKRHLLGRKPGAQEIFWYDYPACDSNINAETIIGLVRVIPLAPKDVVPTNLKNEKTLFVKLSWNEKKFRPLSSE

B1: 14-bp DNA duplex (dsDNA)
DNA 1: GGAGGCCTCCTGCT
DNA 2: AGCAGGAGGCCTCC
B1: binds [1]; binds [2].
